Experimental data published in PMC2200010.

How the values were obtained:
[1] = target: Escherichia coli heat labile toxin B subunit, pentameric, recombinant (Escherichia coli) (UniProt P32890); experiment: ELISA
[2] = target: cholera toxin B subunit, pentameric, recombinant (Vibrio cholerae) (UniProt P01556); experiment: ELISA
Chain of UniProt P01556 (P01556 22-124): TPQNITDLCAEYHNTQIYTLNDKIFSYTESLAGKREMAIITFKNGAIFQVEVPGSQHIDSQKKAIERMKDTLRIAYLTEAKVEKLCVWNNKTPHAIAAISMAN

Chain of UniProt P32890 (P32890 22-124): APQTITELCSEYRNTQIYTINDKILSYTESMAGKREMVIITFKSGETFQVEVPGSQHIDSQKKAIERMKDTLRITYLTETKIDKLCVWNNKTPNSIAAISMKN

| Substance | stoichiometry N (A subunit per pentameric B subunit) [1] | stoichiometry N (A subunit per pentameric B subunit) [2] |
| --- | --- | --- |
| Escherichia coli heat labile toxin A subunit, recombinant wild type (from UniProt P06717 19-258) (natural protein) | 1 | – |
| cholera toxin A subunit, recombinant wild type (natural protein) | – | 1 |
